Measurements: patent publication US8715948
“Also recorded” adds a separate entry of the source.

Key:
fibronectin = fibronectin (UniProt P02751)
fibrillin-1 = fibrillin-1 (UniProt P35555)
[1] = target: human insoluble skin elastin (UniProt P15502)
[2] = target: human insoluble aortic elastin (UniProt P15502)
human insoluble aortic elastin, sequence (P15502 27-786): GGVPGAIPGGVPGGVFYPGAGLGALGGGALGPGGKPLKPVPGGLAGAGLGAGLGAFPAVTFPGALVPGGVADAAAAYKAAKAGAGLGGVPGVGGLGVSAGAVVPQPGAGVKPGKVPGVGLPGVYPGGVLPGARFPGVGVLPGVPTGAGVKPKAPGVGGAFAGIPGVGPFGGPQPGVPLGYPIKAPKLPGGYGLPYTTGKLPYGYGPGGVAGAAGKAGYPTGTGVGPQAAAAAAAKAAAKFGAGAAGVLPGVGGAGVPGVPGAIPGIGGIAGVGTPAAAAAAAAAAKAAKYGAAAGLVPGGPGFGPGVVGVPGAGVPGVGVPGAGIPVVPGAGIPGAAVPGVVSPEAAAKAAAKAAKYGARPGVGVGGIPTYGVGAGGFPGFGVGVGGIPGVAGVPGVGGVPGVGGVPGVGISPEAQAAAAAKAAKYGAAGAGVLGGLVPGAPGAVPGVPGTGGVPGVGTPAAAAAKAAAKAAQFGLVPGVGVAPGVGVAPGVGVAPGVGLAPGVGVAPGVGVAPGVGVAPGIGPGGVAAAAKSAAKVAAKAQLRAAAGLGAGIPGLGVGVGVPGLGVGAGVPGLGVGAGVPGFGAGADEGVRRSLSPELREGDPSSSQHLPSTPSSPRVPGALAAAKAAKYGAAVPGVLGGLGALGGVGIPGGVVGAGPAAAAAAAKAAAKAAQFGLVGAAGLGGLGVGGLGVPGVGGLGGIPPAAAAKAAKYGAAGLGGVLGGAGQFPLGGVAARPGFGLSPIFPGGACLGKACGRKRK

fibrillin-1, sequence (P35555 whole entry, looked up): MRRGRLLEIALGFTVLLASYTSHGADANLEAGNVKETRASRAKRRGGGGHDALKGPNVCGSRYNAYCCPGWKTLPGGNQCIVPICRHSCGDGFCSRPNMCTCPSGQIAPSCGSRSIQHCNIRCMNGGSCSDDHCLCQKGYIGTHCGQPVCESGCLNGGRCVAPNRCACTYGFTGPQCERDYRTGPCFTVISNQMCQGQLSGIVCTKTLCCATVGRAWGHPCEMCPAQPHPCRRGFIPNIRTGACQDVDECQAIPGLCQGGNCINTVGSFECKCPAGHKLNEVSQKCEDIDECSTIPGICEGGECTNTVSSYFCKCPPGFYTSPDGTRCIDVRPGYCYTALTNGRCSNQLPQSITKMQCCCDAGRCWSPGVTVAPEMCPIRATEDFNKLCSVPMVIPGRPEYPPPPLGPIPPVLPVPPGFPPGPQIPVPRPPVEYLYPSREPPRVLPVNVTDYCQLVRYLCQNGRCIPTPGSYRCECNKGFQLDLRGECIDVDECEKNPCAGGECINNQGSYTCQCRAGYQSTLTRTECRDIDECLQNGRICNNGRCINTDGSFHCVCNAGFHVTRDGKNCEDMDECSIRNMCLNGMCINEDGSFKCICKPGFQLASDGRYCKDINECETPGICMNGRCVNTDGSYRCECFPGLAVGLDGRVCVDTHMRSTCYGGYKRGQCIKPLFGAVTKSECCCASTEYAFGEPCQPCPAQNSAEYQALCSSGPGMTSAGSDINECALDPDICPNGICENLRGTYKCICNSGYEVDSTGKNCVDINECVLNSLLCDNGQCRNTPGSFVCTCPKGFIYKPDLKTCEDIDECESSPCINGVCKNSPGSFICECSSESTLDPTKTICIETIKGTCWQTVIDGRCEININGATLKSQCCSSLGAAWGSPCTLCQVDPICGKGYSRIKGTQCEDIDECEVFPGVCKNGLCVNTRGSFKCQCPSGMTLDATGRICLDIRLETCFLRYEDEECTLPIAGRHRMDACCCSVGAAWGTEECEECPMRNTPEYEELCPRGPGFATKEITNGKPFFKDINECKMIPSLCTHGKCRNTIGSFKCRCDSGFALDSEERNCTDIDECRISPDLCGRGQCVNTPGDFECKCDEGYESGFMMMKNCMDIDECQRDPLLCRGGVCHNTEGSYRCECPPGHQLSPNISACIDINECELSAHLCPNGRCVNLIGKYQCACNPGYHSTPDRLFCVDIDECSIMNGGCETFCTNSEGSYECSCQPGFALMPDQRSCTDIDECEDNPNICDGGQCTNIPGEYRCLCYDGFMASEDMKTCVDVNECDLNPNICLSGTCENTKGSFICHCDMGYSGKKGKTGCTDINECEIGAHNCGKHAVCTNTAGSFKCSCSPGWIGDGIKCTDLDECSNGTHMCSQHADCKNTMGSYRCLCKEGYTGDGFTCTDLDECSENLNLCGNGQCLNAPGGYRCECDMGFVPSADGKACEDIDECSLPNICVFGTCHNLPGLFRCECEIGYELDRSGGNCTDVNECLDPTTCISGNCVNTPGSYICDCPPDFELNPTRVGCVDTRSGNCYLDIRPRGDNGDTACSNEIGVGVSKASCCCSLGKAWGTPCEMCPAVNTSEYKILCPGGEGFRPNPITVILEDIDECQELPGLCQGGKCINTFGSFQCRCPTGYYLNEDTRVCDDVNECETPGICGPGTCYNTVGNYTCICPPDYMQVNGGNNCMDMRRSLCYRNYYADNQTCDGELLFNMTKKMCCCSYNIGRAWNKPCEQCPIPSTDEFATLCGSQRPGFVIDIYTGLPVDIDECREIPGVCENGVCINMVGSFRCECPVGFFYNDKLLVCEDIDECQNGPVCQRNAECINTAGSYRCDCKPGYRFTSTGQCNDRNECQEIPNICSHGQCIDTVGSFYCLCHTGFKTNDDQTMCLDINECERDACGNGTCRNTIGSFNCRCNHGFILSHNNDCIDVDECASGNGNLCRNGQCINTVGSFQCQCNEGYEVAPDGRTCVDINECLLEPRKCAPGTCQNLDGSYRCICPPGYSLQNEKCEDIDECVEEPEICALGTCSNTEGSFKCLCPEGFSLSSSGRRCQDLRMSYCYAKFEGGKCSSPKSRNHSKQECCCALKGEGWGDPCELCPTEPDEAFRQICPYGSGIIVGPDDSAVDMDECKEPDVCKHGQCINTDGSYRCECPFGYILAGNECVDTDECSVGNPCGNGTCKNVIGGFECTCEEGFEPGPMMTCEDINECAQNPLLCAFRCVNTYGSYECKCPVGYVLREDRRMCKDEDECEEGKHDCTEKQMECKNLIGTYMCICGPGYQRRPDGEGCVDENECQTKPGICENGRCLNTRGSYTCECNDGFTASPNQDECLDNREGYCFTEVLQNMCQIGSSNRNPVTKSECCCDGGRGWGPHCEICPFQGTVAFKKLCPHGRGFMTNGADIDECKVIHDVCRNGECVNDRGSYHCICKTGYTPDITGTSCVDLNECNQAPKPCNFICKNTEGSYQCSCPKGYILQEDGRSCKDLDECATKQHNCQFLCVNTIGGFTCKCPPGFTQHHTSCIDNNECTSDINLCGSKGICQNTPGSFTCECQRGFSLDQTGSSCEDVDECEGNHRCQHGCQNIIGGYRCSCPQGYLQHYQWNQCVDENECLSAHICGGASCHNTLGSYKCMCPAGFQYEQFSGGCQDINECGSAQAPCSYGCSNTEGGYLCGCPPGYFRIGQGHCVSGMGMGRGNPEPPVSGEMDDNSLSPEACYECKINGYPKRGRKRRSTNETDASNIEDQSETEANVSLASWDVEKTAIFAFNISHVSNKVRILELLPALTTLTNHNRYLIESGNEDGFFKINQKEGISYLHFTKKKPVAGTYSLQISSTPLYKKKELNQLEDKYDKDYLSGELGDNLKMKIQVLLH
human insoluble skin elastin, sequence (P15502 27-786): as the sequence (P15502 27-786) above

Substance	cleavage fragments, fibronectin Western blot of supernatants (fibronectin)	cleavage fragments, fibrillin-1 Western blot of supernatant and ECM (fibrillin-1)	radioactivity increase over background [1] [fold for skin elastin]	radioactivity increase over background [2] [fold for aortic elastin]
Granzyme A	supernatants treated with granzyme A for the indicated times were probed for fibronectin and several fragments were observed	showed fibrillin-1 cleavage fragments in the GrA supernatant, GrA ECM		
Trypsin		showed fibrillin-1 cleavage fragments in the GrA supernatant, GrA ECM, Trypsin supernatant, and Trypsin ECM; also recorded: showed fibrillin-1 cleavage fragments in the GrB supernatant, GrB ECM, Trypsin supernatant and Trypsin ECM		
elastase			14.9	7.7
